Test results: patent publication US5882644A, “Monoclonal antibodies specific for the platelet derived growth factor β receptor and methods of use thereof” (Protein Design Labs, Inc., priority 1996, dated 1999)

What was measured:
rat PDGF-R β = rat PDGF-R β (rat, UniProt Q05030); experiment: cell-based or functional assay
[1] = biological target: T1, PDGF-R β expressed on transfectant cells (CHO PDGF-R β transfectants, CHO C4 line); Sp2/0 PDGF-R β … (human, UniProt P09619); experiment: competition with 125I-labeled M4TS.11 on Sp2/0 PDGF-R β transfectant cells
Experimental: (§1) Figure 11: FIG. 11 is a graph depicting competitive binding of muM4TS.11 (closed squares) and HuM4TS.11 (open squares) and HuM4TS.11(gamma 1) (open diamonds). Increasing concentrations of cold competitor antibodies were incubated with the Sp2/0 transfectants expressing PDGF-R β in the presence of radiolabeled tracer muM4TS.11, and the ratio of bound/free radioactivity determined. The results shown are mean values of triplicate samples.
(§2) To assess the ability of HuM4TS.11 to compete with the muAb for receptor binding, increasing concentrations of the two antibodies were respectively incubated on ice for one hour with Sp2/0 PDGF-R β transfectant cells and a fixed amount of tracer ^125I-labeled M4TS.11. The sample tubes were processed as in the blocking experiment described. HuM4TS.11 competed less well than muM4TS.11 (FIG. 11).

[2] = biological target: T1, PDGF-R β expressed on transfectant …; experiment: competition with 125I-labeled muM4TS.11 on Sp2/0 PDGF-R β transfectant cells
Experimental: as §1, §2
(§3) Loss of binding affinity due to the gamma4 isotype has been observed in another antibody (Horgan et al. (1993) J. Immunol. 150:5400), and may be due to structural constraints imposed on the particular antibody by the gamma4 hinge region. See, Horgan et al. (1993).

[3] = biological target: T1, PDGF-R β expressed on transfectant …; experiment: competition with 125I-labeled muM4TS.11 on Sp2/0 PDGF-R β transfectant cells (FIG. 11)
Experimental: as §1, §2, §3

IC50 of inhibition of PDGF BB-stimulated proliferation of rat aortic smooth muscle cells (rat PDGF-R β) [µg/mL] | Ka [1] [M⁻¹] | Ka [2] [M⁻¹] | fold difference in competition against muM4TS.11 [3] [fold] | Binder
~0.5 | 5e+08 | – | – | muM4TS.11 (antibody, V domains shown) VH: QVQLQQSGAEVAKPGASVKMSCKASGYTFTNCWMHWVKQRPGQGLEWIGYINPTTGYSEYNQNFKDKATLTADKSSNTAYIQLSSLTSEDSAVYYCTSNYGHYDWFANWGQGTLVT VL: DIVLTQSPPSLAVSLGQRATISCRASESVDSYGNSFMHWYQQKPGQPPKLLIYRASNLESGIPARFSGGGSRTDFTLTINPVEADDVATYYCQQSNEDPPTFGGGTKLEIK
– | – | 1.6e+08 | ~3 | HuM4TS.11(gamma1) (antibody, V domains shown) VH: QVQLVQSGAEVKKPGASVKVSCKASGYTFTNCWMHWVRQAPGQGLEWIGYINPTTGYSEYNQNFKDKATITADKSTSTAYMELSSLRSEDTAVYYCTSNYGHYDWFGNWGQGTLVT VL: DIQMTQSPSSLSASVGDRVTITCRASESVDSYGNSFMHWYQQKPGKAPKLLIYRASNLESGIPSRFSGSGSRTDFTLTISSLQPEDVATYYCQQSNEDPPTFGQGTKVEIK
